Experimental data as given in patent US20080199426.

Tested on: Hirudin (Calbiochem 377853)

In the case of “thrombin activated from 10% human plasma on HUVEC monolayers”, the “cleavage of the chromogenic thrombin substrate (absorbance at 405 nm)” value is reported as “completely blocked the cleavage of the chromogenic thrombin substrate”.
